Results taken from patent publication US20240132622A1 (Bristol-Myers Squibb, published 2024).

How the values were obtained:
recombinant human PAD4 [1] = biological target: T1, recombinant human PAD4 (human, UniProt Q9UM07 1-663); assay: cell-based or functional assay
recombinant human PAD4 [2] = biological target: T1, recombinant human PAD4; assay: SPR 37 C, captured antibody, PAD4 analyte, 2 mM EDTA
Protocol: (§1) For SPR measurements, either an anti-human capture surface or Protein A surface (Cytiva catalog #29127555) was used. Anti-human capture surface was prepared by immobilizing anti-human capture antibody (Cytiva catalog #29234600) onto flow cells of a CM5 or CM4 biosensor following the manufacturer's amine coupling protocol (Cytiva catalog #BR-1006-33). SPR experiments were conducted at 37° C. using HBS-P (150 mM NaCl, 10 mM HEPES, pH 7.6, 0.05% Tween-20) (TEKNOVA catalog #H8032) with additional 150 mM NaCl and 1 mM or 2 mM CaCl₂) (see Table 2) or 2 mM EDTA (see Table 3) as running buffer. Antibodies were diluted to 1.5 μg/mL in the running buffer, and were captured across active biosensor flow cells at 10 μL/min for 15 to 30 seconds. […] The association and dissociation of the antibodies with PAD4 were measured. One 30 second injection followed by one 15 second injection of 10 mM glycine pH 1.5 was used to regenerate the Protein A capture surface between assay cycles. For anti-human capture surface, two 30 second injections of 3 M MgCl₂ was used for regeneration. SPR measurements for mAb20 and mAb 13 SPR were done in the presence of 2 mM CaCl₂). The remaining antibodies were tested in the presence of 1 mM CaCl₂).
(§2) Rate constants kₒₙ and koff were derived from reference flow cell- and 0 nM blank-subtracted sensorgrams, and were fit to a 1:1 binding model in Biacore® Insight Evaluation software version 3.0.12.15655. Deviations from 1:1 binding model were observed, which may be caused by increased dimerization of PAD4 at higher concentrations. The equilibrium dissociation constant, KD, was calculated as the ratio of rate constants koff/kₒₙ for each PAD4 antibody. For those antibodies that were tested in multiple SPR experiments, the average value and standard deviation from two or three separate experiments are listed in Tables 2 and 3.

recombinant human PAD4 [3] = biological target: T1, recombinant human PAD4; assay: SPR 37 C, captured antibody, PAD4 analyte, 1 mM CaCl2
Protocol: Their binding to human PAD4 was measured by Surface Plasmon Resonance (SPR). SPR measurements were performed with a Biacore® 8K, 8K+, or T200 instrument (Cytiva). The association rate constants, kₒₙ, dissociation rate constants, koff, and equilibrium dissociation constants, KD, of the antibodies with PAD4 were determined from these SPR measurements.
as §1
as §2, with “antibody.” for “antibody. For those antibodies that were tested in multiple SPR experiments, the average value and standard deviation from two or three separate experiments are listed in Tables 2 and 3.”

[4] = biological target: extracellular matrix (ECM) proteins; assay: ECM plate ELISA (Matrigel), 1 uM antibody, A450 over wells without sample
recombinant human PAD4 [5] = biological target: T1, recombinant human PAD4; assay: SPR 37 C, captured antibody, PAD4 analyte, 1 mM CaCl2; 1 mM CaCl2, 37 C; mean of two or three experiments
Protocol: as §1, with “SPR measurements for mAb20 and mAb 13 SPR were done in the presence of 2 mM CaCl₂). The remaining antibodies were tested in the presence of 1 mM CaCl₂).” left out
(§3) Rate constants kₒₙ and koff were derived from reference flow cell- and 0 nM blank-subtracted sensorgrams, and were fit to a 1:1 binding model in Biacore® Insight Evaluation software version 3.0.12.15655. […] The equilibrium dissociation constant, KD, was calculated as the ratio of rate constants koff/kₒₙ for each PAD4 antibody. […]

mouse PAD4 [6] = biological target: T2, mouse PAD4 (mouse, UniProt Q9Z183 1-666); assay: cell-based or functional assay
T2 sequence (Q9Z183 whole entry): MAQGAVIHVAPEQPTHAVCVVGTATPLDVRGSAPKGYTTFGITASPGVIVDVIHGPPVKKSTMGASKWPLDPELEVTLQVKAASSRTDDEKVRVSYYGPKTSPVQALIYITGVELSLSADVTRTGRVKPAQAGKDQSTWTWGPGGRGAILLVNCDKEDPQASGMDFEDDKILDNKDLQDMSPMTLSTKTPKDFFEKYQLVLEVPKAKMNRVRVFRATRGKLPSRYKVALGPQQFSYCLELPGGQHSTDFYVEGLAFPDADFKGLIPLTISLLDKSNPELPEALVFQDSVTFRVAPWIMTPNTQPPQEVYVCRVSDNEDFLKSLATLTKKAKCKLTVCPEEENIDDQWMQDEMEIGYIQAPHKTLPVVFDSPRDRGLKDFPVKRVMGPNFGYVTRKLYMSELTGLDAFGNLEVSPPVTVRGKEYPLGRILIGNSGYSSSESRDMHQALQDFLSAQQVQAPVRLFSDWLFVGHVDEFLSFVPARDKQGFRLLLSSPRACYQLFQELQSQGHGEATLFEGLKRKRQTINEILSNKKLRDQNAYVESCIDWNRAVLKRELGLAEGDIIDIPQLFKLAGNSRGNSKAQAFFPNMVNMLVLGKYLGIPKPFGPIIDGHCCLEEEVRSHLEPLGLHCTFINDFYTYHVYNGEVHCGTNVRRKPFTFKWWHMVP

mouse PAD4 [7] = biological target: T2, mouse PAD4; assay: SPR 37 C, antibody on anti-murine capture surface, PAD4 analyte, 2 mM CaCl2
Protocol: SPR Methods. In general, SPR methods were as described in Example 3 above with the following modifications. An anti-murine capture surface was used that was prepared by immobilizing anti-murine capture antibody (Cytiva catalog #BR100838) onto flow cells of a CM5 biosensor following the manufacturer's amine coupling protocol (Cytiva catalog #BR-1006-33). SPR experiments were conducted at 37° C. using HBS-P (150 mM NaCl, 10 mM HEPES, pH 7.6, 0.05% Tween-20) (TEKNOVA catalog #H8032) with additional 500 mM NaCl and 2 mM CaCl₂) as running buffer. Several concentrations of PAD4, from 0.8 nM to 150 nM were prepared using the running buffer. The association and dissociation of the antibodies with PAD4 were measured. Two 90 second injections of 10 mM glycine pH 1.7 was used to regenerate the anti-murine capture surface.

recombinant human PAD4 [8] = biological target: T1, recombinant human PAD4; assay: cell-based or functional assay; remark: listed apart in the source
[9] = biological target: T3, recombinant human GST-PAD4 fusion protein (human, UniProt Q9UM07 1-663); assay: BLI (BLITZ), GST-PAD4 on anti-GST biosensor
T3 construct: not shown: GST tag
Protocol: Affinity testing methods. Affinity of each antibody clone for a GST-PAD4 fusion protein was determined by Biolayer Interferometry (BLI) using a BLITZ instrument (Forte Bio, Menlo Park, California), using a biosensor chip (Anti-GST chip, Forte Bio, Cat. No. 18-5096). The biosensor was treated with citrate buffer, PBS, or PBS/Ca for 15 seconds; recombinant human GST-PAD4 was added on a drop holder for 80 seconds to prime the biosensor with PAD4; antibody was then added on the drop holder for 80 seconds to allow binding between antibody and the PAD4; PBS/PBS-Ca was added on the drop holder for 60 seconds to remove unbound antibody. The association rate constants, kₒₙ, dissociation rate constants, koff, and equilibrium dissociation constants, KD, were determined using BLITZ Pro Software, version 1.2.0.49.

recombinant human PAD4 [10] = biological target: T1, recombinant human PAD4; assay: SPR 37 C, captured antibody, PAD4 analyte, 2 mM CaCl2
Protocol: as §1, §2

recombinant human PAD4 [11] = biological target: T1, recombinant human PAD4; assay: SPR 37 C, captured antibody, PAD4 analyte, 2 mM CaCl2; biphasic response, approximate KD; 2 mM CaCl2, 37 C; biphasic response
Protocol: as §1, with “SPR measurements for mAb20 and mAb 13 SPR were done in the presence of 2 mM CaCl₂). The remaining antibodies were tested in the presence of 1 mM CaCl₂).” left out
as §3

recombinant human PAD4 [12] = biological target: T1, recombinant human PAD4; assay: cell-based or functional assay; remark: listed apart in the source
N-His-TVMV-PAD4 = biological target: T4, N-His-TVMV-PAD4 (human, UniProt Q9UM07 1-663); assay: complex purified by size exclusion chromatography; cryo-EM
T4 construct: E. coli expressed; used for the cryo-EM complex with clone 13 Fab, seen as a 2:2 assembly; also called Human PAD4 (1-663); full-length PAD4 construct with cleavable N-terminal his tag
T4 chain: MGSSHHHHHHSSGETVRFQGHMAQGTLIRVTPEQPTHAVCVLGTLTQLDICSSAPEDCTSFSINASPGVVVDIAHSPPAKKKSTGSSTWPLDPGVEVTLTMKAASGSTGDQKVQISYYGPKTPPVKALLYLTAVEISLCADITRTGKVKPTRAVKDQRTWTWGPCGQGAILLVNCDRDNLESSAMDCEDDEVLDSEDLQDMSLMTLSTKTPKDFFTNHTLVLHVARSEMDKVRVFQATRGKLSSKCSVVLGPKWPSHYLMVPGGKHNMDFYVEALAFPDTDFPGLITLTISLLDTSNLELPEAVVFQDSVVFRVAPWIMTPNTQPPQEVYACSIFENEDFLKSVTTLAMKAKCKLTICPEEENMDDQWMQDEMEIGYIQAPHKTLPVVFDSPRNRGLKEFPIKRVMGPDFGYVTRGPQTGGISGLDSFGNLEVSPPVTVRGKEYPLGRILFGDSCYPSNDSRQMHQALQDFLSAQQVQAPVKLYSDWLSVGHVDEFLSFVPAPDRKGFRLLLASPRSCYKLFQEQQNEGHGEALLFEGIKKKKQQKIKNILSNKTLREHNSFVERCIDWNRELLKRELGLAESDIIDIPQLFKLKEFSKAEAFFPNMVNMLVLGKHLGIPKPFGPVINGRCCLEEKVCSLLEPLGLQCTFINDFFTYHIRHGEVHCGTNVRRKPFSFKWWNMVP

T1 sequence (Q9UM07 whole entry): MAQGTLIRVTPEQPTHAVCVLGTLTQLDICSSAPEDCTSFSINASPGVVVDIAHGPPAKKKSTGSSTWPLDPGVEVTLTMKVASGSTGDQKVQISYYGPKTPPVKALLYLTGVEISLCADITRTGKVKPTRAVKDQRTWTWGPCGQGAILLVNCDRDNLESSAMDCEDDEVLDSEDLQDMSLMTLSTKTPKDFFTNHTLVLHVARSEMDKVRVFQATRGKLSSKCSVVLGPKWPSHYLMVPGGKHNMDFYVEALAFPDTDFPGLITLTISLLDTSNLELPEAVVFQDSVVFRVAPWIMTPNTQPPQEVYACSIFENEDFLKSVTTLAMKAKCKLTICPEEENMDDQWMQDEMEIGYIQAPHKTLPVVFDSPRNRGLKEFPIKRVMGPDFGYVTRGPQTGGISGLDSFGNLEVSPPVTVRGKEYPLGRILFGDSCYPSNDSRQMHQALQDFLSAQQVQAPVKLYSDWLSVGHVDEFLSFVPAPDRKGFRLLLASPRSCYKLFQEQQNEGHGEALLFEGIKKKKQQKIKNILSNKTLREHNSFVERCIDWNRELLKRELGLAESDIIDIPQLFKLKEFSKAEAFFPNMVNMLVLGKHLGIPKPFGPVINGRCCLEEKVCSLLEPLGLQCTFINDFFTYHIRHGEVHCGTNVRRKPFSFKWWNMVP

B1: hz20-1 (antibody, V domains shown)
VH: QVQLVQSGAEVKKPGASVKVSCKASGYTFTNYGISWVRQAPGQGLEWMGEIYPRSGNTYHNEKFKDRVTMTRDTSTSTVYMELSSLRSEDTAVYYCARSMITTRYWYFDVWGKGTTVTVSS
VL: DIVMTQSPDSLAVSLGERATINCRASESVDTYGNSFMHWYQQKPGQPPKLLIYLASNLESGVPDRFSGSGSGTDFTLTISSLQAEDVAVYYCQQNNEDPLTFGAGTKLELK
notes: light constant region not tied to this antibody
- IC50 (average), PAD4 citrullination of peptide …, RapidFire MS (recombinant human PAD4 [1]): 77 nM
- Kd (recombinant human PAD4 [2]): 2.6 nM
- koff (recombinant human PAD4 [2]): 0.00054 s⁻¹
- kon (recombinant human PAD4 [2]): 220000 M⁻¹ s⁻¹
- Kd (recombinant human PAD4 [3]): 2.7 nM
- koff (recombinant human PAD4 [3]): 0.00089 s⁻¹
- ECM Score (1 µM) [4]: 1
- kon (recombinant human PAD4 [5]): 550000 M⁻¹ s⁻¹

B2: mumAb (antibody, mouse IgG1, kappa, V domains shown)
VH: EVQLQQPGAELVKPGASVKLSCKASDHTFTTYWIHWVKQRPGRGLEWIGRIGPNSGGSKYNEKFRTKATLTVDKPSSTAYMQLSSLKSEDSAVYFCAFSNYLDYLDYWGQGTTLTVSS
VL: DIVLTQSPASLAVSLGQRATISCKASQSVDHDGEGYMNWYQQKPGQPPKLLIYAASNLESGIPARFSGSGSGTDFTLNIHPVEEEDAATYYCQQINEDPYTFGGGTKLEIKR
notes: Formatted as mIgG1-D265A; also called anti-murine PAD4 mAb; mouse anti-mPAD4 mumAb antibody
- IC50, mPAD4 citrullination of peptide …, RapidFire MS, 50 nM mPAD4 (mouse PAD4 [6]): 13.2 nM
- Kd (mouse PAD4 [7]): 0.7 nM
- koff (mouse PAD4 [7]): 0.0002 s⁻¹
- kon (mouse PAD4 [7]): 290000 M⁻¹ s⁻¹

B3: clone 20 (mAb20) (antibody, V domains shown)
VH: QVQLQQSGAELARPGASVKLSCKATGYTFTNYGISWVKQRTGQGLEWIGEIYPRSGNTYHNEKFKDKATLTADKSSSTAYMEFRSLTSEDSAVYFCARSMITTRYWYFDVWGKGTTVTVSS
VL: NIVLTQSPASLAVSLGQRATLSCRASESVDTYGNSFMHWYQQKPGQPPKLLIYLASNLESGVPARFSGSGSRTDFTLTIDPVEADDAATYYCQQNNEDPLTFGAGTKLELK
notes: Murine anti-human PAD4 antibody; also called murine anti-human clone 20 antibody
- IC50 (average), PAD4 citrullination of peptide …, RapidFire MS (recombinant human PAD4 [1]): 104 nM
- IC50 of inhibition of PAD4 activity (% Activity against [AB Clone 20] nM) (recombinant human PAD4 [8]): 39.6 nM
- Kd [9]: < 1.71 nM
- koff [9]: < 1e-06 s⁻¹
- kon [9]: 583 M⁻¹ s⁻¹
- koff (recombinant human PAD4 [10]): 0.0062 s⁻¹
- kon (recombinant human PAD4 [10]): 43000 M⁻¹ s⁻¹
- Kd (recombinant human PAD4 [11]): ~150 nM

B4: clone 13 (mAb13) (antibody, V domains shown)
VH: EVLLQQSGAELVKPGASVRLSCTSSDFNIKDHFIHWVKQRTEQGLEWIGRIDPEDDETKYAPKFQDKVTITADTSSNTAYLQLSSLTSEDTAVFYCAGYGNYEGAMDYWGQGTSVTVSS
VL: DIVLTQSPTSLGVSPGQRATLSCRASENVNNYGIGFMNWFQQKPGQPPKLLIYAASRRGSGVPARFSGSGSGTDFSLNIHPMEEDDTAMYFCQQSKEVPYTFGGGTNLEIR
notes: Murine anti-human PAD4 antibody; also called murine anti-human clone 13 antibody
- IC50 (average), PAD4 citrullination of peptide …, RapidFire MS (recombinant human PAD4 [1]): 30 nM
- IC50 of inhibition of PAD4 activity (% Activity against [AB Clone 13] nM) (recombinant human PAD4 [12]): 10.1 nM
- Kd [9]: < 0.0244 nM
- koff [9]: < 1e-06 s⁻¹
- kon [9]: 41100 M⁻¹ s⁻¹
- Kd (recombinant human PAD4 [10]): 3.2 nM
- koff (recombinant human PAD4 [10]): 0.0011 s⁻¹
- kon (recombinant human PAD4 [10]): 350000 M⁻¹ s⁻¹

B5: clone 13 Fab (Fab, V domains shown)
VH: B4 VH
VL: DIVLTQSPTSLGVSPGQRATLSCRASENVNNYGIGFMNWFQQKPGQPPKLLIYAASRRGSGVPARFSGSGSGTDFSLNIHPMEEDDTAMYFCQQSKEVPYTFGGGTNLEIRR
notes: Heavy chain fragment with C-terminal His-tag; murine constant regions; also called Fab of clone 13; Fab13
- binding result (N-His-TVMV-PAD4): binds
